Test system: proteins that co-immunoprecipitated with DUX4-CTD constructs expressed in MB135 myoblasts
Assay: LC-MS of proteins co-immunoprecipitated with DUX4-CTD (Table 1) and western validation
Assay type: binding, human
Set-up: key to 4. mL1dL2 + Dox + IFNG / 4. + IFNG mix / 4. longCTD + Dox + IFNG / 3. + IFNg + Dox longCTD / 3. + Dox longCTD / 3. + IFNG longCTD: peptide-spectrum matches (PSMs) per protein
Details: for 4. + IFNG mix: LC-MS value per protein co-immunoprecipitated from MB135 myoblasts, + IFNG mix sample (no Dox)
In short: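 FLAG-tagged DUX4-CTD expressed in doxycycline-induced MB135 myoblasts, some also IFNG-treated; nuclear lysates in pH 7.4 NP-40 IP buffer were pre-cleared, then anti-FLAG immunoprecipitated 3 h at 4 °C. For LC-MS, FLAG-peptide elution, in-gel trypsin digest, Orbitrap analysis; proteins with ≥2 PSMs in both experiments categorised and ranked by total PSMs.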

[1] = LC-MS value per protein co-immunoprecipitated with DUX4-CTD construct mL1dL2 in MB135 myoblasts, + Dox + IFNG, kind of count not given

B1: HAT1 (protein)
chain: AGFGAMEKFLVEYKSAVEKKLAEYKCNTNTAIELKLVRFPEDLENDIRTFFPEYTHQLFGDDETAFGYKGLKILLYYIAGSLSTMFRVEYASKVDENFDCVEADDVEGKIRQIIPPGFCTNTNDFLSLLEKEVDFKPFGTLLHTYSVLSPTGGENFTFQIYKADMTCRGFREYHERLQTFLMWFIETASFIDVDDERWHYFLVFEKYNKDGATLFATVGYMTVYNYYVYPDKTRPRVSQMLILTPFQGQGHGAQLLETVHRYYTEFPTVLDITAEDPSKSYVKLRDFVLVKLCQDLPCFSREKLMQGFNEDMVIEAQQKFKINKQHARRVYEILRLLVTDMSDAEQYRSYRLDIKRRLISPYKKKQRDLAKMRKCLRPEELTNQMNQIEISMQHEQLEESFQELVEDYRRVIERLAQE
- 4. + IFNG mix (kind of count not given): 1
- 4. mL1dL2 + Dox + IFNG [1]: 10

B2: P4HA1 (protein)
chain: HPGFFTSIGQMTDLIHTEKDLVTSLKDYIKAEEDKLEQIKKWAEKLDRLTSTATKDPEGFVGHPVNAFKLMKRLNTEWSELENLVLKDMSDGFISNLTIQRQYFPNDEDQVGAAKALLRLQDTYNLDTDTISKGNLPGVKHKSFLTAEDCFELGKVAYTEADYYHTELWMEQALRQLDEGEISTIDKVSVLDYLSYAVYQQGDLDKALLLTKKLLELDPEHQRANGNLKYFEYIMAKEKDVNKSASDDQSDQKTTPKKKGVAVDYLPERQKYEMLCRGEGIKMTPRRQKKLFCRYHDGNRNPKFILAPAKQEDEWDKPRIIRFHDIISDAEIEIVKDLAKPRLRRATISNPITGDLETVHYRISKSAWLSGYENPVVSRINMRIQDLTGLDVSTAEELQVANYGVGGQYEPHFDFARKDEPDAFKELGTGNRIATWLFYMSDVSAGGATVFPEVGASVWPKKGTAVFWYNLFASGEGDYSTRHAACPVLVGNKWVSNKWLHERGQEFRRPCTLSELE
- 4. + IFNG mix (kind of count not given): 1
- 4. mL1dL2 + Dox + IFNG [1]: 27

B3: AP2B1 (protein)
chain: TDSKYFTTNKKGEIFELKAELNNEKKEKRKEAVKKVIAAMTVGKDVSSLFPDVVNCMQTDNLELKKLVYLYLMNYAKSQPDMAIMAVNSFVKDCEDPNPLIRALAVRTMGCIRVDKITEYLCEPLRKCLKDEDPYVRKTAAVCVAKLHDINAQMVEDQGFLDSLRDLIADSNPMVVANAVAALSEISESHPNSNLLDLNPQNINKLLTALNECTEWGQIFILDCLSNYNPKDDREAQSICERVTPRLSHANSAVVLSAVKVLMKFLELLPKDSDYYNMLLKKLAPPLVTLLSGEPEVQYVALRNINLIVQKRPEILKQEIKVFFVKYNDPIYVKLEKLDIMIRLASQANIAQVLAELKEYATEVDVDFVRKAVRAIGRCAIKVEQSAERCVSTLLDLIQTKVNYVVQEAIVVIRDIFRKYPNKYESIIATLCENLDSLDEPDARAAMIWIVGEYAERIDNADELLESFLEGFHDESTQVQLTLLTAIVKLFLKKPSETQELVQQVLSLATQDSDNPDLRDRGYIYWRLLSTDPVTAKEVVLSEKPLISEETDLIEPTLLDELICHIGSLASVYHKPPNAFVEGSHGIHRKHLPIHHGSTDAGDSPVGTTTATNLEQPQVIPSQGDLLGDLLNLDLGPPVNVPQVSSMQMGAVDLLGGGLDSLVGQSFIPSSVPATFAPSPTPAVVSSGLNDLFELSTGIGMAPGGYVAPKAVWLPAVKAKGLEISGTFTHRQGHIYMEMNFTNKALQHMTDFAIQFNKNSFGVIPSTPLAIHTPLMPNQSIDVSLPLNTLGPVMKMEPLNNLQVAVKNNIDVFYFSCLIPLNVLFVEDGKMERQVFLATWKDIPNENELQFQIKECHLNADTVSSKLQNNNVYTIAKRNVEGQDMLYQSLKLTNGIWILAELRIQPGNPNYTLSLKCRAPEVSQYIYQVYDSILKN
- 4. mL1dL2 + Dox + IFNG [1]: 1

B4: RPN1 (protein)
chain: ASSEAPPLINEDVKRTVDLSSHLAKVTAEVVLAHLGGGSTSRATSFLLALEPELEARLAHLGVQVKGEDEEENNLEVRETKIKGKSGRFFTVKLPVALDPGAKISVIVETVYTHVLHPYPTQITQSEKQFVVFEGNHYFYSPYPTKTQTMRVKLASRNVESYTKLGNPTRSEDLLDYGPFRDVPAYSQDTFKVHYENNSPFLTITSMTRVIEVSHWGNIAVEENVDLKHTGAVLKGPFSRYDYQRQPDSGISSIRSFKTILPAAAQDVYYRDEIGNVSTSHLLILDDSVEMEIRPRFPLFGGWKTHYIVGYNLPSYEYLYNLGDQYALKMRFVDHVFDEQVIDSLTVKIILPEGAKNIEIDSPYEISRAPDELHYTYLDTFGRPVIVAYKKNLVEQHIQDIVVHYTFNKVLMLQEPLLVVAAFYILFFTVIIYVRLDFSITKDPAAEARMKVACITEQVLTLVNKRIGLYRHFDETVNRYKQSRDISTLNSGKKSLETEHKALTSEIALLQSRLKTEGSDLCDRVSEMQKLDAQVKELVLKSAVEAERLVAGKLKKDTYIENEKLISGKRQELVTKIDHILDAL
- 4. + IFNG mix (kind of count not given): 2
- 4. mL1dL2 + Dox + IFNG [1]: 7

B5: PDIA3 (protein)
chain: SDVLELTDDNFESRISDTGSAGLMLVEFFAPWCGHCKRLAPEYEAAATRLKGIVPLAKVDCTANTNTCNKYGVSGYPTLKIFRDGEEAGAYDGPRTADGIVSHLKKQAGPASVPLRTEEEFKKFISDKDASIVGFFDDSFSEAHSEFLKAASNLRDNYRFAHTNVESLVNEYDDNGEGIILFRPSHLTNKFEDKTVAYTEQKMTSGKIKKFIQENIFGICPHMTEDNKDLIQGKDLLIAYYDVDYEKNAKGSNYWRNRVMMVAKKFLDAGHKLNFAVASRKTFSHELSDFGLESTAGEIPVVAIRTAKGEKFVMQEEFSRDGKALERFLQDYFDGNLKRYLKSEPIPESNDGPVKVVVAENFDEIVNNENKDVLIEFYAPWCGHCKNLEPKYKELGEKLSKDPNIVIAKMDATANDVPSPYEVRGFPTIYFSPANKKLNPKKYEGGRELSDFISYLQREATNPPVIQEEKPKKKKKAQEDL
- 4. + IFNG mix (kind of count not given): 9
- 4. mL1dL2 + Dox + IFNG [1]: 3

B6: SERPINH1 (protein)
chain: AEVKKPAAAAAPGTAEKLSPKAATLAERSAGLAFSLYQAMAKDQAVENILVSPVVVASSLGLVSLGGKATTASQAKAVLSAEQLRDEEVHAGLGELLRSLSNSTARNVTWKLGSRLYGPSSVSFADDFVRSSKQHYNCEHSKINFRDKRSALQSINEWAAQTTDGKLPEVTKDVERTDGALLVNAMFFKPHWDEKFHHKMVDNRGFMVTRSYTVGVMMMHRTGLYNYYDDEKEKLQIVEMPLAHKLSSLIILMPHHVEPLERLEKLLTKEQLKIWMGKMQKKAVAISLPKGVVEVTHDLQKHLAGLGLTEAIDKNKADLSRMSGKKDLYLASVFHATAFELDTDGNPFDQDIYGREELRSPKLFYADHPFIFLVRDTQSGSLLFIGRLVRPKGDKMRDEL
- 4. + IFNG mix (kind of count not given): 5
- 4. mL1dL2 + Dox + IFNG [1]: 5

B7: ASPH (protein)
chain: MAQRKNAKSSGNSSSSGSGSGSTSAGSSSPGARRETKHGGHKNGRKGGLSGTSFFTWFMVIALLGVWTSVAVVWFDLVDYEEVLGKLGIYDADGDGDFDVDDAKVLLGLKERSTSEPAVPPEEAEPHTEPEEQVPVEAEPQNIEDEAKEQIQSLLHEMVHAEHVEGEDLQQEDGPTGEPQQEDDEFLMATDVDDRFETLEPEVSHEETEHSYHVEETVSQDCNQDMEEMMSEQENPDSSEPVVEDERLHHDTDDVTYQVYEEQAVYEPLENEGIEITEVTAPPEDNPVEDSQVIVEEVSIFPVEEQQEVPPETNRKTDDPEQKAKVKKKKPKLLNKFDKTIKAELDAAEKLRKRGKIEEAVNAFKELVRKYPQSPRARYGKAQCEDDLAEKRRSNEVLRGAIETYQEVASLPDVPADLLKLSLKRRSDRQQFLGHMRGSLLTLQRLVQLFPNDTSLKNDLGVGYLLIGDNDNAKKVYEEVLSVTPNDGFAKVHYGFILKAQNKIAESIPYLKEGIESGDPGTDDGRFYFHLGDAMQRVGNKEAYKWYELGHKRGHFASVWQRSLYNVNGLKAQPWWTPKETGYTELVKSLERNWKLIRDEGLAVMDKAKGLFLPEDENLREKGDWSQFTLWQQGRRNENACKGAPKTCTLLEKFPETTGCRRGQIKYSIMHPGTHVWPHTGPTNCRLRMHLGLVIPKEGCKIRCANETKTWEEGKVLIFDDSFEHEVWQDASSFRLIFIVDVWHPELTPQQRRSLPAI
- 4. mL1dL2 + Dox + IFNG [1]: 1

B8: P04844 (protein, UniProt P04844 1-631, looked up)
chain: MAPPGSSTVFLLALTIIASTWALTPTHYLTKHDVERLKASLDRPFTNLESAFYSIVGLSSLGAQVPDAKKACTYIRSNLDPSNVDSLFYAAQASQALSGCEISISNETKDLLLAAVSEDSSVTQIYHAVAALSGFGLPLASQEALSALTARLSKEETVLATVQALQTASHLSQQADLRSIVEEIEDLVARLDELGGVYLQFEEGLETTALFVAATYKLMDHVGTEPSIKEDQVIQLMNAIFSKKNFESLSEAFSVASAAAVLSHNRYHVPVVVVPEGSASDTHEQAILRLQVTNVLSQPLTQATVKLEHAKSVASRATVLQKTSFTPVGDVFELNFMNVKFSSGYYDFLVEVEGDNRYIANTVELRVKISTEVGITNVDLSTVDKDQSIAPKTTRVTYPAKAKGTFIADSHQNFALFFQLVDVNTGAELTPHQTFVRLHNQKTGQEVVFVAEPDNKNVYKFELDTSERKIEFDSASGTYTLYLIIGDATLKNPILWNVADVVIKFPEEEAPSTVLSQNLFTPKQEIQHLFREPEKRPPTVVSNTFTALILSPLLLLFALWIRIGANVSNFTFAPSTIIFHLGHAAMLGLMYVYWTQLNMFQTLKYLAILGSVTFLAGNRMLAQQAVKRTAH
modifications: full-length
- 4. mL1dL2 + Dox + IFNG (LC-MS counts of the listed protein co-immunoprecipitated with DUX4-CTD bait mL1dL2, experiment 4, Dox + IFNG): 3
- 3. + IFNg + Dox longCTD (bait longCTD, experiment 3, IFNg + Dox): 4
- SUM of PSMS (sum over all samples): 7
